The supplement of paper PMC10899765
Values joined by “and” are separate entries in the source; they are usually repeats but may differ in a detail not shown here. Identical values can stand only once.

Columns and labels:
Details in all cases: 20 nM; 72 h
MCF10A [1] = assay: 5+ nucleoli phenotype percent effect (relative to siNT 0% and siKIF11 100%); higher = more cells with five or more nucleoli
Experimental: (§1)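 After 72 h, cells were fixed and stained with Hoechst and anti-fibrillarin, and nucleoli per nucleus were counted with CellProfiler. Values are plate-adjusted percent effect for the one-nucleolus and 5+ nucleoli phenotypes, normalised to siNT (0%) and to the positive controls siNOL11 or siKIF11 (100%), as the mean of biological triplicates. Percent viability is the nuclei count relative to siNT.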

MCF10A [2] = assay: percent viability (nuclei count relative to siNT); higher = more viable cells
Experimental: as §1

MCF10A [3] = assay: one-nucleolus phenotype percent effect (relative to siNT 0% and siNOL11 100%); higher = more cells with one nucleolus (ribosome biogenesis inhibition)
Experimental: as §1

Sequence	5+ nucleoli phenotype percent effect (MCF10A [1])	percent viability (MCF10A [2])	one-nucleolus phenotype percent effect (MCF10A [3])
GUGCGGAACGCUGGCCGGGGCG [hsa-miR-6850-5p]	-19.5%	45.3%	5.11%
CGGGCAUGCUGGGAGAGACUUU [hsa-miR-6862-5p]	-13%	21.6%	31.7%
UGAUAUGUUUGAUAUUGGGUU [hsa-miR-190b]	-11.2%	36%	21.8%
UCAGUGCACUACAGAACUUUGU [hsa-miR-148a-3p]	68.2%	88.9%	-16.7%
CUGAACUAGAGAUUGGGCCCA [hsa-miR-7158-3p]	-10.2%	32.7%	16%
AGGUUGUCCGUGUUGUCUUCUCU [hsa-miR-494-5p]	18.5%	22.3%	3.91%
AAAAUGGUUCCCUUUAGAGUGU [hsa-miR-522-3p]	28.6%	66.3%	-12.4%
UCCAGUACAGGUCUCUCAUUUC [hsa-miR-4712-5p]	-15.1%	81.3%	11%
UGGGGGAGAUGGGGGUUGA [hsa-miR-6870-5p]	-6.86%	32.7%	15.2%
GGUAGAUUUUCCUUCUAUGGU [hsa-miR-376a-2-5p]	62%	71.5%	-26.7%
UCCCUACCCCUCCACUCCCCA [hsa-miR-3162-3p]	53.4%	75.9%	-5.78%
GGCGGCGGGGAGGUAGGCAG [hsa-miR-8072]	-2.29%	49.8%	-6.87%
GGCUACAACACAGGACCCGGGC [hsa-miR-187-5p]	15.6%	136%	-18.2%
AAGCCUGCCCGGCUCCUCGGG [hsa-miR-596]	-11.4%	74.8%	-4%
CCCUUCCCUCACUCUUCUCUCAG [hsa-miR-6734-3p]	13.3%	44.4%	-3.15%
AUGGAGAAGGCUUCUGA [hsa-miR-4531]	-33.8%	32.2%	56.1%
UGGGGCUAGUGAUGCAGGACG [hsa-miR-4489]	-9.01%	18.6%	25.8%
UAACCCUGUCCUCUCCCUCCCAG [hsa-miR-6732-3p]	1.9%	36.4%	-9.42%
ACGGAGACGACAAGACUGUGCUG [hsa-miR-5091]	-11.8%	32.1%	3.3%
GCUCGGACUGAGCAGGUGGG [hsa-miR-3917]	32.5%	57.6%	-20.1%
UGAGAGUGGAAUUCACAGUAUUU [hsa-miR-4693-3p]	-31.4%	23%	35.2%
GUGUUGAAACAAUCUCUACUG [hsa-miR-653]	38.1%	169%	-22.2%
UUGGCCAUGGGGCUGCGCGG [hsa-miR-3187-3p]	12.9%	30.1%	-2.01%
AUCCUCUUUCGUCCUUCCCACU [hsa-miR-6881-3p]	-36.4%	49.2%	22.7%

Sequence	5+ nucleoli phenotype percent effect (MCF10A [1])	percent viability (MCF10A [2])	one-nucleolus phenotype percent effect (MCF10A [3])
AACUGUUUGCAGAGGAAACUGA [hsa-miR-452-5p]	28.4%	103%	-22.3%
UAAGGUGCAUCUAGUGCAGAUAG [hsa-miR-18a-5p]	-34.5%	49.1%	37.7%
ACAUCGCCCCACCUUCCCCAG [hsa-miR-6785-3p]	55.5%	102%	-34.4%
CUGGACUGAGCCAUGCUACUGG [hsa-miR-1269b]	18.3%	60.9%	2.22%
AAGGGACAGGGAGGGUCGUGG [hsa-miR-7845-5p]	2.91%	60.5%	-13.3%
CAGUGCAAUGAUAUUGUCAAAGC [hsa-miR-301b]	45.2%	95.6%	-11.1%
CUGCCAUGUCUAAGAAGAAAAC [hsa-miR-4659a-5p]	-0.515%	68.5%	-12.3%
UGGACUGCCCUGAUCUGGAGA [hsa-miR-1288]	2.11%	33%	7.88%
AUGUCCAUAUUAUGGGUUAGU [hsa-miR-3912-5p]	83.1%	83.8%	-28.3%
AAAAGCUGGGUUGAGAGGA [hsa-miR-320d]	-8.63% and -12.1%	50.4% and 40.7%	27% and 27.3%
UAAAGACUGUAGAGGCAACUGGU [hsa-miR-7161-5p]	33.8%	79.8%	-23.4%
CCUCACCAUCCCUUCUGCCUGC [hsa-miR-6511a-3p]	24.1%	41.3%	-11.2%
AGUGGAUGAUGGAGACUCGGUAC [hsa-miR-3691-5p]	-12.7%	13.1%	34.9%
GAGGCAGAAGCAGGAUGACA [hsa-miR-1910-3p]	-17.5%	38.6%	25.3%
CACAGCAAGUGUAGACAGGCA [hsa-miR-3120-3p]	22.9%	51.8%	-20.3%
GUAGGUGACAGUCAGGGGCGG [hsa-miR-6800-5p]	-0.87%	33.9%	1.11%
ACUUUAACAUGGAGGCACUUGC [hsa-miR-302d-5p]	29.1%	92.5%	-13.5%
GGGAAAAGGAAGGGGGAGGA [hsa-miR-6124]	53.1%	180%	-29.7%
UAAAGAACUCUUAAAACCCAAU [hsa-miR-3133]	48.7%	51.5%	-22.2%
AUAAGACGAACAAAAGGUUUGU [hsa-miR-208b]	3.95%	63%	2.18%
UUCUCAAGGAGGUGUCGUUUAU [hsa-miR-513c-5p]	3.99%	30%	19.8%
CUGGGCUCGGGACGCGCGGCU [hsa-miR-4674]	-33.5%	31.3%	18.5%
UCUGGCAAGUAAAAAACUCUCAU [hsa-miR-3128]	-13.6%	24.9%	10.4%
GGGAUGGUAGACCGGUGACGUGC [hsa-miR-1193]	-23%	24.3%	19.2%
